# Results taken from the RNAGym collection of RNA variant scans (doi:10.7554/elife.80360).
# B1: Hammerhead Ribozyme (parent)
# chain: ACCGGAUGUGCUUUCCGGUCUGAUGAGUCCGUGAGGACGAAACAG
# Variants of: B1
# Experiment: self-cleavage, relative activity (ratio to wild type); higher = more cleavage; co-transcriptional
row,Variant,self-cleavage
1,ACCGGAUGUGCCUGCCGGUCUGAUGAGUCCGUGAGGACGAAACAG,0.902
2,ACCGGAUGUGCCUACCGGUCUGAUGAGUCCGUGAGGACGAAACAG,0.832
3,ACCGGAUGUGCCUCCCGGUCUGAUGAGUCCGUGAGGACGAAACAG,0.83
4,ACCGGAUGUGCCUUCCGGUCAGAUGAGUCCGUGAGGACGAAACAG,0.471
5,ACCGGAUGUGCCUUCCGGUCGGAUGAGUCCGUGAGGACGAAACAG,0.609
6,ACCGGAUGUGCCUUCCGGUCCGAUGAGUCCGUGAGGACGAAACAG,0.792
7,ACCGGAUGUGCCUUCCGGUCUGAUGAGUCCGUGAGGACGAACCAG,0.32
8,ACCGGAUGUGCCUUCCGGUCUGAUGAGUCCGUGAGGACGAAGCAG,0.255
9,ACCGGAUGUGCCUUCCGGUCUGAUGAGUCCGUGAGGACGAAUCAG,0.364
10,ACCGGAUGUGCCUUCCGGUCUGAUGAGUCCGUGAGGACGAUACAG,0.288
11,ACCGGAUGUGCCUUCCGGUCUGAUGAGUCCGUGAGGACGACACAG,0.299
12,ACCGGAUGUGCCUUCCGGUCUGAUGAGUCCGUGAGGACGAGACAG,0.358
13,ACCGGAUGUGCCUUCCGGUCUGAUGAGUCCGCGAGGACGAAACAG,1.05
14,ACCGGAUGUGCCUUCCGGUCUGAUGAGUCCGAGAGGACGAAACAG,1.26
15,ACCGGAUGUGCCUUCCGGUCUGAUGAGUCCGGGAGGACGAAACAG,0.502
16,ACCGGAUGUGCCUUCCGGACUGAUGAGUCCGUGAGGACGAAACAG,0.388
17,ACCGGAUGUGCCUUCCGGCCUGAUGAGUCCGUGAGGACGAAACAG,0.577
18,ACCGGAUGUGCCUUCCGGGCUGAUGAGUCCGUGAGGACGAAACAG,0.371
19,ACCGGAUGUGCCUUCCGGUCUGAUGAGUCCGUGAGGCCGAAACAG,0.573
20,ACCGGAUGUGCCUUCCGGUCUGAUGAGUCCGUGAGGGCGAAACAG,0.915
21,ACCGGAUGUGCCUUCCGGUCUGAUGAGUCCGUGAGGUCGAAACAG,0.727
22,ACCGGAUGUGCCUUCCGGUCUGAUGGGUCCGUGAGGACGAAACAG,0.308
23,ACCGGAUGUGCCUUCCGGUCUGAUGCGUCCGUGAGGACGAAACAG,0.505

row,Variant,self-cleavage
1,ACCGGAUGUGCCUUCCGGUCUGAUGUGUCCGUGAGGACGAAACAG,0.854
2,ACCGGAUGUGCCUUCCGGUCUGAUGAGUACGUGAGGACGAAACAG,0.589
3,ACCGGAUGUGCCUUCCGGUCUGAUGAGUUCGUGAGGACGAAACAG,0.912
4,ACCGGAUGUGCCUUCCGGUCUGAUGAGUGCGUGAGGACGAAACAG,0.599
5,ACCGGAUGUGCCUUCCGGUCUGAUGAGUCUGUGAGGACGAAACAG,0.683
6,ACCGGAUGUGCCUUCCGGUCUGAUGAGUCAGUGAGGACGAAACAG,0.955
7,ACCGGAUGUGCCUUCCGGUCUGAUGAGUCGGUGAGGACGAAACAG,0.84
8,ACCGGAUGUGCGUUCCGGUCUGAUGAGUCCGUGUGGACGAAACAG,0.897
9,ACCGGAUGUGCGUUCCGGUCUGAUGAGUCCGUGCGGACGAAACAG,0.841
10,ACCGGAUGUGCGUUCCGGUCUGAUGAGUCCGUGGGGACGAAACAG,0.909
11,ACCGGAUGUGCCUUCCGGUCUGAUGAGUCCGUGACGACGAAACAG,0.617
12,ACCGGAUGUGCCUUCCGGUCUGAUGAGUCCGUGAAGACGAAACAG,0.737
13,ACCGGAUGUGCCUUCCGGUCUGAUGAGUCCGUGAUGACGAAACAG,0.834
14,ACCGGAUGUGCCUUCCGGUCUGAUGAGUCCGUGAGGACGAAACAG,1.05
15,ACCGGAUGUGCGUUCCGGUCUGAUGAGUCCGUGAGGACGAAACAG,0.976
16,ACCGGAUGUGCCUUCCGGUCUGAUGAGUCCGUGAGAACGAAACAG,0.55
17,ACCGGAUGUGCCUUCCGGUCUGAUGAGUCCGUGAGCACGAAACAG,0.713
18,ACCGGAUGUGCCUUCCGGUCUGAUGAGUCCGUGAGUACGAAACAG,0.498
19,ACCGGAUGUGCCUUCCGGUCUGAUGAGUCCGUGAGGACGGAACAG,0.329
20,ACCGGAUGUGCCUUCCGGUCUGAUGAGUCCGUGAGGACGUAACAG,0.379
21,ACCGGAUGUGCCUUCCGGUCUGAUGAGUCCGUGAGGACGCAACAG,0.531
22,ACCGGAUGUGCGUUCCGGUCUGAUGGGUCCGUGAGGACGAAACAG,0.346
23,ACCGGAUGUGCGUUCCGGUCUGAUGCGUCCGUGAGGACGAAACAG,0.475

row,Variant,self-cleavage
1,ACCGGAUGUGCGUUCCGGUCUGAUGUGUCCGUGAGGACGAAACAG,0.708
2,ACCGGAUGUGCCUUCCAGUCUGAUGAGUCCGUGAGGACGAAACAG,0.79
3,ACCGGAUGUGCCUUCCUGUCUGAUGAGUCCGUGAGGACGAAACAG,0.612
4,ACCGGAUGUGCCUUCCCGUCUGAUGAGUCCGUGAGGACGAAACAG,0.446
5,ACCGGAUGUGCCUUCCGGUCUUAUGAGUCCGUGAGGACGAAACAG,0.36
6,ACCGGAUGUGCCUUCCGGUCUAAUGAGUCCGUGAGGACGAAACAG,0.36
7,ACCGGAUGUGCCUUCCGGUCUCAUGAGUCCGUGAGGACGAAACAG,0.337
8,ACCGGAUGUGCGUUCCGGUCUGGUGAGUCCGUGAGGACGAAACAG,0.407
9,ACCGGAUGUGCGUUCCGGUCUGUUGAGUCCGUGAGGACGAAACAG,0.317
10,ACCGGAUGUGCGUUCCGGUCUGCUGAGUCCGUGAGGACGAAACAG,0.459
11,ACCGGAUGUGCCUUCCGGUCUGAUGAGUCCAUGAGGACGAAACAG,0.871
12,ACCGGAUGUGCCUUCCGGUCUGAUGAGUCCUUGAGGACGAAACAG,1
13,ACCGGAUGUGCCUUCCGGUCUGAUGAGUCCCUGAGGACGAAACAG,0.913
14,ACCGGAUGUGCCUUCCGGUCUGAUGAGUCCGUGAGGACAAAACAG,0.403
15,ACCGGAUGUGCCUUCCGGUCUGAUGAGUCCGUGAGGACCAAACAG,0.327
16,ACCGGAUGUGCCUUCCGGUCUGAUGAGUCCGUGAGGACUAAACAG,0.317
17,ACCGGAUGUGCCUUCGGGUCUGAUGAGUCCGUGAGGACGAAACAG,0.652
18,ACCGGAUGUGCCUUCUGGUCUGAUGAGUCCGUGAGGACGAAACAG,0.878
19,ACCGGAUGUGCCUUCAGGUCUGAUGAGUCCGUGAGGACGAAACAG,0.908
20,ACCGGAUGUGCCCUCCGGUCUGAUGAGUCCGUGAGGACGAAACAG,1.13
21,ACCGGAUGUGCCAUCCGGUCUGAUGAGUCCGUGAGGACGAAACAG,1.36
22,ACCGGAUGUGCCGUCCGGUCUGAUGAGUCCGUGAGGACGAAACAG,0.964
23,ACCGGAUGUGCCUUCCGGUCUGAUGAGUCCGUGAGGACGAAACGG,1.6

row,Variant,self-cleavage
1,ACCGGAUGUGCCUUCCGGUCUGAUGAGUCCGUGAGGACGAAACCG,0.611
2,ACCGGAUGUGCCUUCCGGUCUGAUGAGUCCGUGAGGACGAAACUG,0.725
3,ACCGGAUGUGCGUUCCGGUCUGAUGAGUCCGUGAGGGCGAAACAG,1.02
4,ACCGGAUGUGCGUUCCGGUCUGAUGAGUCCGUGAGGCCGAAACAG,0.88
5,ACCGGAUGUGCCUUCCGGUCUGAUGACUCCGUGAGGACGAAACAG,0.669
6,ACCGGAUGUGCCUUCCGGUCUGAUGAUUCCGUGAGGACGAAACAG,0.581
7,ACCGGAUGUGCCUUCCGGUCUGAUGAAUCCGUGAGGACGAAACAG,0.605
8,ACCGGAUGUGCCUUCCGGUCUGAUGAGUCCGUGAGGAAGAAACAG,0.678
9,ACCGGAUGUGCCUUCCGGUCUGAUGAGUCCGUGAGGAUGAAACAG,0.832
10,ACCGGAUGUGCCUUCCGGUCUGAUGAGUCCGUGAGGAGGAAACAG,0.663
11,ACCGGAUGUGCCUUGCGGUCUGAUGAGUCCGUGAGGACGAAACAG,0.474
12,ACCGGAUGUGCCUUACGGUCUGAUGAGUCCGUGAGGACGAAACAG,0.565
13,ACCGGAUGUGCCUUUCGGUCUGAUGAGUCCGUGAGGACGAAACAG,0.974
14,ACCGGAUGUGCCUUCCGGUCUGAUGAGGCCGUGAGGACGAAACAG,0.543
15,ACCGGAUGUGCCUUCCGGUCUGAUGAGACCGUGAGGACGAAACAG,0.487
16,ACCGGAUGUGCCUUCCGGUCUGAUGAGCCCGUGAGGACGAAACAG,1.35
17,ACCGGAUGUGCCUUCCGGUCUGAUGAGUCCGUGAGGACGAAACAU,0.564
18,ACCGGAUGUGCCUUCCGGUCUGAUGAGUCCGUGAGGACGAAACAC,0.73
19,ACCGGAUGUGCCUUCCGGUCUGAUGAGUCCGUGAGGACGAAACAA,0.777
20,ACCGGAUGUGCCUUCCGGUCUGACGAGUCCGUGAGGACGAAACAG,1.01
21,ACCGGAUGUGCCUUCCGGUCUGAGGAGUCCGUGAGGACGAAACAG,1.13
22,ACCGGAUGUGCCUUCCGGUCUGAAGAGUCCGUGAGGACGAAACAG,1.04
23,ACCGGAUGUGCCUUCCGGUCUGAUGAGUCCGUGAGGACGAAAUAG,0.486

row,Variant,self-cleavage
1,ACCGGAUGUGCCUUCCGGUCUGAUGAGUCCGUGAGGACGAAAGAG,0.305
2,ACCGGAUGUGCCUUCCGGUCUGAUGAGUCCGUGAGGACGAAAAAG,0.278
3,ACCGGAUGUGCCUUCCGGUCUGCUGAGUCCGUGAGGACGAAACAG,0.361
4,ACCGGAUGUGCCUUCCGGUCUGGUGAGUCCGUGAGGACGAAACAG,0.37
5,ACCGGAUGUGCCUUCCGGUCUGUUGAGUCCGUGAGGACGAAACAG,0.321
6,ACCGGAUGUGCAUUCCGGUCUGAUGAGUCCGCGAGGACGAAACAG,1.14
7,ACCGGAUGUGCAUUCCGGUCUGAUGAGUCCGGGAGGACGAAACAG,0.878
8,ACCGGAUGUGCCUUCCGGUCUGAUUAGUCCGUGAGGACGAAACAG,0.277
9,ACCGGAUGUGCCUUCCGGUCUGAUCAGUCCGUGAGGACGAAACAG,0.354
10,ACCGGAUGUGCCUUCCGGUCUGAUAAGUCCGUGAGGACGAAACAG,0.352
11,ACCGGAUGUGCCUUCCGAUCUGAUGAGUCCGUGAGGACGAAACAG,0.627
12,ACCGGAUGUGCCUUCCGUUCUGAUGAGUCCGUGAGGACGAAACAG,0.626
13,ACCGGAUGUGCCUUCCGCUCUGAUGAGUCCGUGAGGACGAAACAG,0.5
14,ACCGGAUGUGCCUUCCGGUCUGAUGAGUCCGUCAGGACGAAACAG,0.817
15,ACCGGAUGUGCCUUCCGGUCUGAUGAGUCCGUAAGGACGAAACAG,1.25
16,ACCGGAUGUGCCUUCCGGUCUGAUGAGUCCGUUAGGACGAAACAG,1.37
17,ACCGGAUGUGCCUUCCGGUUUGAUGAGUCCGUGAGGACGAAACAG,0.395
18,ACCGGAUGUGCCUUCCGGUGUGAUGAGUCCGUGAGGACGAAACAG,0.324
19,ACCGGAUGUGCCUUCCGGUAUGAUGAGUCCGUGAGGACGAAACAG,0.449
20,ACCGGAUGUGCCUUCCGGUCUGAUGAGUCCGUGGGGACGAAACAG,1.09
21,ACCGGAUGUGCCUUCCGGUCUGAUGAGUCCGUGUGGACGAAACAG,0.668
22,ACCGGAUGUGCCUUCCGGUCUGAUGAGUCCGUGCGGACGAAACAG,0.877
